Data as given in patent US20230295310A1 (ABCELLERA BIOLOGICS, published 2023).

Columns and labels:
[1] = target: T1, human CD3 expressed on cells (human, UniProt P07766 23-207; P04234 22-171; P09693 23-182); assay: flow cytometry, 25 nM, Jurkat cells (human primary T cells in c4 also <10)
T1 construct: whole, on cells; CD3 complex on Jurkat cells and on human primary T cells
Description: Purified antibodies were confirmed to bind CD3 expressed on cells using the CytoFLEX S or LX flow cytometers (Beckman Coulter). Antibodies were diluted to 25 nM in FACS buffer (PBS+2% FBS) and were incubated with CD3-expressing cells for 30 minutes at 4° C. […] The median fluorescence intensity of the binding signal for each antibody was normalized to the isotype control to obtain a fold over isotype value. An antibody with a fold over isotype (FOI) of ≥10 was considered to be positive for binding.

[2] = target: T1, human CD3 expressed on cells; assay: flow cytometry, 25 nM
Method in brief: (§1)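 Cells expressing CD3 were exposed to each antibody diluted to 25 nM for 30 minutes at 4° C, then analysed by flow cytometry. The median fluorescence signal was expressed relative to an isotype control, and a value of at least 10 indicated binding.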

[3] = target: T2, cynomolgus monkey CD3 expressed on primary T cells (cynomolgus monkey, UniProt Q95LI5 22-198; Q95LI8 22-171; Q95LI7 23-181); assay: flow cytometry, 25 nM, cyno primary T cells
T2 construct: whole, on cells; CD3 complex on purified cynomolgus monkey T cells; also called cyno CD3
T2 sequence (Q95LI5 22-198, chain 1 of 3): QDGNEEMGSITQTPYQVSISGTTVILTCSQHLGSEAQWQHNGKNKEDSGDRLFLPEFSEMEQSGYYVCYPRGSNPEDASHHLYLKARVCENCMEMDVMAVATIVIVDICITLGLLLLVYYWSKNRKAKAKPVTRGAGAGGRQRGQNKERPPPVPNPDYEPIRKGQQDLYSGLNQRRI
T2 sequence (Q95LI8 22-171, chain 2 of 3): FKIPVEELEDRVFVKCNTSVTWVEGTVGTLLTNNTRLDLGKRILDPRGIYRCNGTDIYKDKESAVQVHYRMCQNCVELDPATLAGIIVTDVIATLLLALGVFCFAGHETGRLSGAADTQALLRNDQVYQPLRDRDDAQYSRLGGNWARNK
T2 sequence (Q95LI7 23-181, chain 3 of 3): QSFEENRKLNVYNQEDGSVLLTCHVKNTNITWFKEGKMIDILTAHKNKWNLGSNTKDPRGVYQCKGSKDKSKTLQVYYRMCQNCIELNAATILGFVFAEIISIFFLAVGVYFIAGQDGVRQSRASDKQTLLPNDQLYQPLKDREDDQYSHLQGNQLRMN
Method in brief: as §1

cynomolgus monkey CD3 = target: T3, cynomolgus monkey CD3 (cynomolgus monkey, UniProt Q95LI5 22-198; Q95LI8 22-171; Q95LI7 23-181); assay: flow cytometry, cyno primary T cells
T3 construct: whole, on cells; CD3 on purified cynomolgus monkey CD3 pan T cells; also called cyno CD3; CD3 on cyno primary T cells
T3 sequence (Q95LI5 22-198, chain 1 of 3): as the sequence (Q95LI5 22-198, chain 1 of 3) above
T3 sequence (Q95LI8 22-171, chain 2 of 3): as the sequence (Q95LI8 22-171, chain 2 of 3) above
T3 sequence (Q95LI7 23-181, chain 3 of 3): as the sequence (Q95LI7 23-181, chain 3 of 3) above
Method in brief: as §1

T1 sequence (P07766 23-207, chain 1 of 3): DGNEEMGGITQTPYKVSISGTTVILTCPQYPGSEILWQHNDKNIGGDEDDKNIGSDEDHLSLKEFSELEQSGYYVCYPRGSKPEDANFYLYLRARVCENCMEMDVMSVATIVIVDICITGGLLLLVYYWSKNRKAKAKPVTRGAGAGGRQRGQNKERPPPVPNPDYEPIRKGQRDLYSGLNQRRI
T1 sequence (P04234 22-171, chain 2 of 3): as the sequence (Q95LI8 22-171, chain 2 of 3) above, with V5I, K15N, V20I, T32S, N33D, N34I, A64T, N74S, L83V, R141H counted along it
T1 sequence (P09693 23-182, chain 3 of 3): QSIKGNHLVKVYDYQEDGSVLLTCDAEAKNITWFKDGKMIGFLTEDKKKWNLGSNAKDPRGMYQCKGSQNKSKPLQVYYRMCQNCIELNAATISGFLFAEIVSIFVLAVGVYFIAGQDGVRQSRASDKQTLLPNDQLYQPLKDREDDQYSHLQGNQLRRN

binding result [1]	Human primary T Cell Binding (FOI) [2] [FOI]	binding result [3]	Binder	binding result (cynomolgus monkey CD3)
no binding (tested: FOI >=10 = positive)	0.805	no binding (tested: FOI >=10 = positive)	mAb 84 (antibody, V domains shown) VH: QVHLVQSGAEVKKPGASVKVSCKASGHSFTGYYVHWARQAPGQGLEWMGWIYSNSGRTSYAQKFQGRVTMTRDTSISTTYMELSRLRSDDTAVYYCARLDQLVFDYWGQGTLVTVSS VL: not shown	–
no binding (tested: FOI >=10 = positive)	0.885	no binding (tested: FOI >=10 = positive)	mAb 88 (antibody, V domains shown) VH: QVHLVQSGAEVKKPGASVKVSCKASGHTFTGYYVHWARQAPGQGLEWMGWIYSNSGRTSYSQKFQGRVAMTRDTSINTIYMDLSRLRSDDTAVYYCARLEQLVFDFWGQGTLVTVSS VL: not shown	–
no binding (tested: FOI >=10 = positive)	0.715	no binding (tested: FOI >=10 = positive)	mAb 87 (antibody, V domains shown) VH: QVQLVQSGAEMKKPGASVKVSCKASGYTFTDYYLHWVRRAPGHGLEWMGWIYPKSGRRNYAQHFQGRVTMTRDTSINTAYMELSSLRSDDSAVYFCVRLEQLVFDYWGQGTLVTVSS VL: not shown	–
no binding (tested: FOI >=10 = positive)	0.905	no binding (tested: FOI >=10 = positive)	mAb 80 (antibody, V domains shown) VH: QVQLVQSGAEVKKPGASVKVSCKASGYTFAGYYLHWVRQAPGQGLEWMGWINPNSGRTESAQKFQGRVTLTRDTSITTAYMALSRLRSDDTAIYYCTRLEQLVFDYWGQGTLVTVSS VL: EIVLTQSPDFQSVTPKEKVTITCRASQSIGSSLHWYQQKPDQSPKLLIKYASQSFSGVPSRFSGSGSGTDFTLTINSLEAEDAATYYCHQSSSLPTFGQGTKVEIK	–
no binding (tested: FOI >=10 = positive)	0.594	no binding (tested: FOI >=10 = positive)	mAb 89 (antibody, V domains shown) VH: QVQLVQSGAEVKKPGASVKVSCKASGYTFAGYYLHWVRQAPGQGLEWMGWINPNSGRTESAQKFQGRVTLTRDTSITTAYMALSRLRSDDTAIYYCTRLEQLVFDYWGQGTLVTVSS VL: DIQMTQSPSSLSASVGDRVTITCRASQGISNYLAWFQQKPGKAPKSLIYAASSLQSGVPSKFSGSGSGTDFTLTISSLQPEDFATYYCQQYNSYPITFGQGTRLEIK	–
no binding (tested: FOI >=10 = positive)	0.842	no binding (tested: FOI >=10 = positive)	mAb 63 (antibody, V domains shown) VH: QVQLVQSGAEVRKPGASVKVSCKASGYTFTGNHMHWVRQAPGQGLEWMGWINPKSGRTNFAQNFQGRVTMTRDTSISTAFMELSRLRSDDTAVYYCARMGDLLLFDFWGQGTLVTVSS VL: not shown	–

The remaining lines, values behind:

Binder	binding result [1]	Human primary T Cell Binding (FOI) [2] [FOI]	binding result [3]	binding result (cynomolgus monkey CD3)
mAb 75 (antibody, V domains shown) VH: QVQLVQSGAEVKKPGASVRVSCKASGYTFTGNYIHWVRLAPGQGLEWMGWINPKSGRTQFVQKFQGRVTMTRDTSITTVYMELSRLRSDDTAVYYCARLGDLLNFDYWGQGTLVTVSS VL: not shown	no binding (tested: FOI >=10 = positive)	0.694	no binding (tested: FOI >=10 = positive)	–
mAb 76 (antibody, V domains shown) VH: QVHLVQSGAEVKKPGASVKVSCKASGHTFTGFYVHWARQAPGQGLEWMGWIYSNSGRTSYSQKFQGRVAMTRDTSISTIYMDLSRLRSDDTAVYYCARLEQLVFDFWGQGTLVTVSS VL: not shown	no binding (tested: FOI >=10 = positive)	0.921	no binding (tested: FOI >=10 = positive)	–
mAb 82 (antibody, V domains shown) VH: QVHLVQSGAEVKKPGASVKVSCKASGHTFTGYYVHWARQAPGQGLEWMGWIYSNSGRTSYSQKFQGRVAMTRDTSISTIYMDLSRLRSDDTAVYYCARLEQLVFDFWGQGTLVTVSS VL: not shown	no binding (tested: FOI >=10 = positive)	0.954	no binding (tested: FOI >=10 = positive)	–
mAb 64 (antibody, V domains shown) VH: QVQLMPSGAEVKEPGASVKVSCKASGYTFTGYYMHWVRQAPGQGLEWMGWINPNSGRTSYAKNFQGRVTMTRDTSISTAYMELSRLRSDDTAVYYCARIEQLVFDYWGQGTLVTVSS VL: not shown	no binding (tested: FOI >=10 = positive)	0.816	no binding (tested: FOI >=10 = positive)	–
mAb 48 (antibody, V domains shown) VH: QVQLVQSGAEVKKPGASVKVSCKASGYTFTGYYIHWVRQAPGQGLEWMGWINPKSGNRNYAQKFQGRVTMTRDTSIDTAYMELTRLRSDDTAVYYCARIEQLVFDYWGQGTLVTVSS VL: not shown	no binding (tested: FOI >=10 = positive)	1.3	no binding (tested: FOI >=10 = positive)	–
mAb 91 (antibody, V domains shown) VH: QVQLVQSGAEVKKPGASVKVSCKASGYTFTGYYIHWVRQAPGQGLEWMGWINPKSGNTVYAQRFQGRVTMTRDTSISTAYMDLSRLKSDDTAVYYCARLEQLVFDYWGQGALVTVSS VL: not shown	no binding (tested: FOI >=10 = positive)	0.746	no binding (tested: FOI >=10 = positive)	–
mAb 45 (antibody, V domains shown) VH: QAQLVQSGSELKKPGASVKVSCKASGYTFTKHSMNWVRQAPGQGLEWMGWINTNTGNPMYGQGFTGRFVFSLDTSMTTTYLQISSLKAEDTAIYYCAREGDYDLWRGFFNFDYWGQGTLVTVSS VL: DIQMTQSPSSLSASVGDRVTITCRASQGIRNDLGWYQQKPGKAPKRLIYAASSLQSGVPSRFSGSGSGAEFTLTISSLQPEDFATYYCLQHNSYPRTFGQGTKVEIK	no binding (tested: FOI >=10 = positive)	0.891	no binding (tested: FOI >=10 = positive)	–
mAb 321 (antibody, V domains shown, VH and VL only) VH: QVQLVESGGGVVQPGRSLRLSCVASGFTFRSFGMHWVRQAPGKGLEWVVVISNDGSHKYYVESVKGRFTISRDNSKNTLYLQMNSLRPEDTAVYYCARRDYYGSGMDVWGKGTTVTVSS VL: SYELTQPPSVSVSPGQTARITCSGDALPKKYAYWYQQKSGQAPVLVIYEDRKRPSGIPERFSGSSSGTMATLTISGAQVEDEADYYCYSTDSSGNHAVFGGGTQLTAL	–	–	–	no binding (tested: FOI ≥10 = positive; 25 nM)
mAb 322 (antibody, V domains shown, VH and VL only) VH: QVQLVESGGGVVQPGRSLRLSCVASGFTFRSYGMHWVRQAPGKGLEWVVVISNDGSHKYYVESVKGRFTISRDNSKNTLYLQMNSLRAEDTAVYYCARRDYYGSGMDVWGKGTTVTVSS VL: SYELTQPPSVSVSPGQTARITCSGDALPKKYAYWYQQKSGQAPVLVIYEDRKRPSGIPERFSGSSSGTMATLTISGAQVEDEADYYCYSTDSSGNHAVFGGGTQLTAL	–	–	–	no binding (tested: FOI ≥10 = positive; 25 nM)
